The record followed here is article PMC4660058.

pKd: −log10 of the molar value.

In assay [1] the target is CP-capped actin filament barbed end (BC) (rabbit | not stated) (UniProt P68135). Description: microfluidics-assisted single-filament fluorescence microscopy (kinetics of elongation changes); set-up #1: formin-bound barbed ends (BF) exposed to CP + PA (BF+C→BFC), then PA alone (constants 'from BFC'); unlabelled formin; F-buffer pH 7.8, 50 mM KCl, room temperature.
Assay [2] has the same target. Description: microfluidics-assisted single-filament fluorescence microscopy (kinetics of elongation changes); set-up #1: CP-capped barbed ends (BC) exposed to formin without PA for T_(expo) (BC+F→BCF), then PA alone (constants 'from BCF'); k′+F from a fit, not measured directly; F-buffer pH 7.8, 50 mM KCl, room temperature.
Assay [3] addresses actin filament free barbed end (B) (rabbit) (UniProt P68135). Description: microfluidics-assisted single-filament fluorescence microscopy (kinetics of elongation changes); set-up #1: filaments from surface-anchored spectrin–actin seeds, free barbed ends exposed to flows of CP or formin with profilin-actin (1 μM actin, 4 μM profilin); off-rates in PA alone; F-buffer pH 7.8, 50 mM KCl, room temperature; KD from the rate constants.

Assay [4] deals with CP-capped actin filament barbed end (BC) (rabbit | not stated) (UniProt P68135). Description: microfluidics-assisted single-filament fluorescence microscopy (kinetics of elongation changes); set-up #2: biotin-SNAP-mDia1 anchored on neutravidin coverslip, insertional barbed-end assembly; exposed to CP + unlabelled PA, then PA alone; detachment = BFC→BC+F, resumed growth = BFC→BF+C; F-buffer pH 7.8, 50 mM KCl, room temperature.

The pKd is the negative decadic logarithm of the Kd, by convention in mol/L. Usually koff stands for the rate constant with which the complex falls apart. A word on the kon: it is a measure of how fast the partners come together. A lower kon goes with slower complex formation. For “FH1–FH2–DAD domain of human formin mDia1 (unlabelled) (from UniProt O60610 583-1272) (domain or fragment)”, in assay [1], the negative-log Kd (pKd) is 8.40 to 8.52 and the koff came to 0.0042 s⁻¹. In assay [2], this substance came in with a koff of 0.0062 s⁻¹ and a kon of 1.6e+06 M⁻¹ s⁻¹.
Regarding “GST–FH1(8P)–FH2–C of formin FMNL2 (from UniProt Q96PY5-3 1-1092) (domain or fragment)”, the kon in assay [3] turned out to be 1.54e+06 M⁻¹ s⁻¹. In assay [2], the koff came out at 0.0094 s⁻¹ and the kon turned out to be 115000 M⁻¹ s⁻¹.
As for “biotinylated SNAP-mDia1(FH1–FH2–DAD)-His (from UniProt O60610 1-1272) (domain or fragment)”, in assay [4], the pKd is 8.40.
